The target of the series is cardiac troponin I (cTnI, TnI) (UniProt P19429 2-210). The experiment in a line: fluorescence decrease of surface-immobilized FAM aptamer; aptamer on gold electrode; pH 7.4; 0.02x PBS stated for the chip rinse; aptamer immobilized at 24 °C for 24 h; binding temperature not given. Particulars: label: 3' FAM; single strand.
cardiac troponin I (cTnI, TnI), sequence (P19429 2-210): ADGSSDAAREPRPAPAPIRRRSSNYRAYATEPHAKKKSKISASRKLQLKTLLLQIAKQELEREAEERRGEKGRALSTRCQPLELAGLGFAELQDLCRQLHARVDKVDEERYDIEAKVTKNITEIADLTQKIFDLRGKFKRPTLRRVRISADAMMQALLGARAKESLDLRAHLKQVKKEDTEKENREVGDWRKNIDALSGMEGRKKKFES

B1: Tro4 aptamer (ssDNA)
DNA: CGTGCAGTACGCCAACCTTTCTCATGCGCTGCCCCTCTTA
modifications: 5' disulfide (S-S), reduced with TCEP to thiol; immobilized on gold
Regarding B1, the binding result was “binds”.

The values are drawn from paper PMC12109899, “Aptamer-Based Planar Electric Double-Layer Field-Effect Transistor: A Novel Approach for Sensitive Troponin I Sensing”.
